Test [1] concerns the target LigA on the surface of L. biflexa serovar Patoc ligA.
Test [2] addresses tag free LigB12 (amino acids 1,047–1,119 in LigB) (L. interrogans serovar Pomona). Put plainly: SPR; Biacore 3000; tag free LigB12 immobilised on CM5 (about 1,000 RU); HTE truncates 0 to 5 μM injected in PBS at 30 μL/min, 25°C; 1:1 Langmuir model. On the technique in general: Surface plasmon resonance follows binding to a sensor surface in real time, without labels.
Test [3] shares this target. Put plainly: other fluorescence titration; intrinsic tryptophan fluorescence of LigB12 (2 μM), excitation 295 nm, read at 315 nm, 25°C, PBS; HTE20 or HTE20N titrated 10 to 0.625 μM.
The target of test [4] is GST tagged LigB4 (amino acids 307–403 in LigB) (L. interrogans serovar Pomona). Kind of test: ELISA; competitive; 5 μM GST-LigB4 or GST-LigB12 pre-incubated 1 h with HTE17-20, HTE20N or HTE20C (10 to 0.156 μM), then added to WI-38 cell monolayers at 37°C; HRP anti-GST. (ELISA stands for enzyme-linked immunosorbent assay.)
Test [5] has as its target GST tagged LigB12 (amino acids 1,047–1,119 in LigB) (L. interrogans serovar Pomona). The description is as above.
Test [6] has as its target tag-free LigB12 mutant D1066A (L. interrogans serovar Pomona). Kind of test: ELISA; tag-free LigB12 wild type or point mutants coated (1 μM/well); His tagged HTE20 or HTE20N titrated 0 to 10 μM; anti-His detection.
For test [7], the target named is tag-free LigB12 mutant E1088A (L. interrogans serovar Pomona). Described as above.
Test [8] has as its target tag-free LigB12 mutant F1054A (L. interrogans serovar Pomona). The test is described as above.
For test [9], the target named is tag-free LigB12 mutant D1061N (L. interrogans serovar Pomona). The test is described as above.
In test [10] the target is LigB12-5-12 chimera (L. interrogans serovar Pomona). Put plainly: ELISA; tag-free LigB5/LigB12 and LigB7/LigB10 chimeras and wild-type domains coated (1 μM/well); 5 μM histidine tagged HTE17-20, HTE20 or HTE20N applied; anti-His detection.
Test [11] addresses LigB12-12-5 chimera (L. interrogans serovar Pomona). The test is described as above.

In general, Kd refers to a measure of binding affinity in units of concentration. A lower Kd goes with tighter binding. By koff is commonly meant the first-order rate constant of dissociation. Lower therefore signals a long-lived complex. For orientation: kon means the rate constant with which the complex forms. Molecule GIPGAAVPGVVSPEAAAKAAAKAAKYG (domain or fragment) [HTE20N (the first 27 residues of HTE20, amino acids 358–384 of HTE)] showed an inhibition of the adhesion of LigA-expressing L. biflexa (Patoc ligA) to WI-38 cells after pre-incubation with HTE20N, 10 to 0.156 μM; ELISA with hamster anti-L. biflexa sera in test [1] of 58%. In test [2], this molecule had a Kd of 780 nM, a koff of 0.0021 s⁻¹ and a kon of 2700 M⁻¹ s⁻¹. This molecule registered a dissociation constant Kd in [3] of 820 nM. Further, in test [4], the percent decrease of LigB4 binding to WI-38 cells at the highest concentration was determined as 54%. This molecule returned a percent decrease of LigB12 binding to WI-38 cells at the highest concentration in test [5] of 51%.
In the case of GIPGAAVPGVVSPEAAAKAAAKAAKYG (domain or fragment) [histidine tagged HTE20N], the percent of wild-type LigB12 binding stood at 26% in [6]; 15% in [8]; 32% in test [9]; 80% in test [10]; 90% in [11]. This molecule yielded a Kd in [7] of 870 nM.

B1: histidine tagged HTE20 (domain or fragment)
chain: GIPGAAVPGVVSPEAAAKAAAKAAKYGARPGVGVGGIPTYGVGAGGFPGFGVGVG
Regarding B1, the percent of wild-type LigB12 binding in test [6] was 26%; in test [8], 15%; in [9], 32%; in test [10], 80%; in [11] it was 90%. In test [7], this molecule showed a Kd of 870 nM.

B2: HTE20 (20th exon of human tropoelastin) (domain or fragment)
chain: B1 chain
B2: in test [2], the Kd is 940 nM, the off-rate (koff) worked out at 0.0032 s⁻¹ and the kon was determined as 3400 M⁻¹ s⁻¹. The Kd in test [3] worked out at 970 nM.

Source of the values: publication PMC5422739.
